# Test results taken from the nanobody polyreactivity screen of Harvey et al. (2022).
# Test: yeast display, Sf9 membrane polyspecificity reagent, FACS + sequencing; frameworks hold sequencing errors
# How it was run: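 A nanobody's polyreactivity label depends on the gate it was sorted from. Yeast display cells were stained with 10% biotinylated, detergent-solubilized Sf9 membrane reagent for 1 hour at 4 °C, enriched on streptavidin microbeads and sorted by FACS. The low and high (top ~1%) gates were set on anti-HA fluorescence for expression and streptavidin fluorescence for reagent binding.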
row,Sequence,polyreactivity (PSR sort gate)
1,QVQLVESGGGLVQAGGSLRLSCAASGSIFYTNAMGWYRQAPGKERELVAAIRKSGGSTYYADSVKGRFTISRDNAKNTVYLQMNSLKPEDTAVYYCNKLYRVPQDLHDYWGQGTQVTVSS,high polyreactivity
2,QVQLVESGGGLVQAGGSLRLSCAASGSIFYTYAMGGYRPAPGKERELVAAISSGGSTTYADSVKGRFTISRDNAKNTVYLQMTSLKPEDTAVYYCNTSYRKKKRYYYWGQGTQVTVSS,high polyreactivity
3,QVQLVESGGGLVQAGGSLRLSCAASGSIFYTYAMGWYRQAPGKERELVADITTNGGNTYYADSVKGRFTISRDNAKNTVYLQMNSLKPEDTAVYYCARDRYDEPDEGDYDYWGQGTQVTVSS,low polyreactivity
4,QVQLVESGGGLVQAGGSLRLSCAASGSIFYTYVMGWYRQAPGKERELVAAISASGVRTYYADSVKGRFTISRDNAKNTVYLQMNSLKPEDTAVYYCAADRQRADYYWGQGTQVTVSS,high polyreactivity
5,QVQLVESGGGLVQAGGSLRLSCAASGSIFYTYVMGWYRQAPGKERELVAAISASGVRTYYADSVKGRFTISRDNAKNTVYLQMNSLKPEDTAVYYCAARYATWYFRRGRKTSDYDYWGQGTQVTVSS,high polyreactivity
6,QVQLVESGGGLVQAGGSLRLSCAASGSIFYVNAMGWYRQAPGKERELVAAISVRGGRTYYADSVKGRFTISRDNAKNTVYLQMNILNPEDTAVYYCATRISTVGRYDYWGEGTQVTVSS,high polyreactivity
7,QVQLVESGGGLVQAGGSLRLSCAASGSIFYVNGMGWYRQAPGKEREFVARITLSGTSTYYADSVKGRFTISRDNAKNTVYLQMNSLKPEDTAVSYCAAPYFTYGQDDDDYWGQGTQVTVSS,low polyreactivity
8,QVQLVESGGGLVQAGGSLRLSCAASGSIFYVYAMGGYRQAPGKERELVAAISRRGARTYYADSVKGRFTISRDNAKNTVYLQMNSLKPEDTAVYYCNADQYYTVGYSAEYEYWGQGTQVTVSS,low polyreactivity
9,QVQLVESGGGLVQAGGSLRLSCAASGSIFYVYAMGWYRQAPGKERELVAAISDDGDTYYADSVKGRFTISRDNAKNTVYLQMNSLNPEDTAVYYCAAEGGANEENSSPEYDYWGQGTQVTVSS,low polyreactivity
10,QVQLVESGGGLVQAGGSLRLSCAASGSIFYVYAMGWYRQAPGKERELVAAITNYADSVKGRFTISRDNAKNTVYLQMNSQKPPDTAVYYCAADWWRVEMDYWGQGTQVTVSS,low polyreactivity
11,QVQLVESGGGLVQAGGSLRLSCAASGSIFYVYAMGWYRQAPGKERELVAAITSSGTTNYADSVKGRLTISRDNAKNTVYLQMNSLKPEDTAVYYCAADPDSGQVPFDYWGQGTQVTVSS,low polyreactivity
12,QVQLVESGGGLVQAGGSLRLSCAASGSIFYVYAMGWYRQAPGKERELVAAITWSGGSTYYADSVKGRFTISRDNAKNTVYLQMNSLKPEDTAVYYCAADEGYDYPYYYWGQGTQVTVSS,high polyreactivity
13,QVQLVESGGGLVQAGGSLRLSCAASGSIFYVYAMGWYRQAPGKERELVASINKSGGSTYYADSVKGRFTISRDNAKNTVYLQMNSLKPEDTAVYYCAARTGWPRVGFQYPAHVGFDYWGQGTQVTVSS,low polyreactivity
14,QVQLVESGGGLVQAGGSLRLSCAASGSIFYVYAMGWYRQAPGKERELVASIRWIGDRTYYADSVKGRFTISRDNAKNTVYLQMNSLKPEDTAVYYCAADPRYYGYYYLTPRYYYWGQGTQVTVSS,high polyreactivity
15,QVQLVESGGGLVQAGGSLRLSCAASGSIFYVYAMVWYRQAPGKEREFVASIRTSGSSTYADSVKGRFTISRDNAKNTVYLQMNSLKPEDTAVYYCAAGSITVFWKRTGYRWRGYDYWGQGTQVTVSS,low polyreactivity
16,QVQLVESGGGLVQAGGSLRLSCAASGSIFYVYGMGWYRQAPGKERELVARITDSGGSTSYADSVKGRFTISRDNAKNTVYLQMNSLKPEDTAVYYCAAYVRPWYNYWGQGTQVTVSS,low polyreactivity
17,QVQLVESGGGLVQAGGSLRLSCAASGSIFYVYTMGWYRQAPGKERELVAAITVSGGRTYYADSVKGRFTISRDNAKNTVYLQLNSLKPEDTAVYYCAADTAWPYYIYWSYDYWGQGTQVTVSS,low polyreactivity
18,QVQLVESGGGLVQAGGSLRLSCAASGSIFYWNAMGWYRQAPGKERELVAAINYSGDSTYYADSVKGRFTISRDNAKNTVYLQMNSLKPEDTAVYYCNFDYWGQGTQVTVSS,low polyreactivity
19,QVQLVESGGGLVQAGGSLRLSCAASGSIFYWYALGWYRQAPGKERELVAAITYSGDRTYYADSVKGRFTISRDNAKNTVYLQMNSLKPEVTAVYYCAKDRGSGPLDYWGQGTQVTVSS,low polyreactivity
20,QVQLVESGGGLVQAGGSLRLSCAASGSIFYWYAMGWYRQAPGKERELVAAISRNGGNTYYADSVKGRFTISRDNAKNTVYLQMNSLKPEDTAVYYCAAQLFVRRWMDYWGQGTQVTVSS,low polyreactivity
21,QVQLVESGGGLVQAGGSLRLSCAASGSIFYWYAMGWYRQAPGKERELVASITTAGSTYYADSVKGRFTISRDNAKNTVYLQMNSLKPEDTAVYYCNTVPYGYHGYLYLYTYGYWGQGTQVTVSS,high polyreactivity

row,Sequence,polyreactivity (PSR sort gate)
1,QVQLVESGGGLVQAGGSLRLSCAASGSIFYWYAMGWYRQAPGKERELVATITRGGSTNYADSVKGRFTISRDNAKNTVYLQMNSLKPEDTAVYYCAAQRVGHKRSTKLDYWGQGTQVTVSS,low polyreactivity
2,QVQLVESGGGLVQAGGSLRLSCAASGSIFYWYAMGWYRQAPGKERELVAVISSGGSTYYADSVKGRFTISRDNAKNTVYLQMNSLKPEDTAVYYCNAGPLRSGRYTYYYWGQGTQVTVSS,low polyreactivity
3,QVQLVESGGGLVQAGGSLRLSCAASGSIFYWYDMGWYRHAPGKEWELVAAISFNVGSTYADSVKGRFTISRDNAKNTFYLQMNSLKPEDTAVYYCNVDAYRTSYEADVYYYTWIYYWGQGTQVTVSS,low polyreactivity
4,QVQLVESGGGLVQAGGSLRLSCAASGSIFYYAMGWYREAPGKERELVAAISRSGGSTYYADSVKGRFTISRDNAKNTVYLQMNSLKPEDTAVYYCAKGYRGYSYGYWRQGTQVTVSS,high polyreactivity
5,QVQLVESGGGLVQAGGSLRLSCAASGSIFYYAMGWYRQAPWKERELVADISTGGSTHYADSVKGRFTISRDNAKNTVYLQMNSLKPEDTAVYYCAKEAWRYRLNFRYNYWGQGTQVTVSS,low polyreactivity
6,QVQLVESGGGLVQAGGSLRLSCAASGSIFYYAMGWYRQATGKERELVAAITTGDGTNYADSVKGRFTISRDNAKNTVYLQMNSLKPEDTAVYYCAKSTYKPYYYYFPYDYWGQGTQVTVSS,low polyreactivity
7,QVQLVESGGGLVQAGGSLRLSCAASGSIFYYNAMGWYRPAPGKERELVADISTSGSTYYADSVKGRFTISRDNAKNTVYLQMNSLKPEDTAVYYCNADYLPQEGEFSYPYDYWGQGTQVTVSS,low polyreactivity
8,QVQLVESGGGLVQAGGSLRLSCAASGSIFYYNAMGWYRQPPGKERELVAAISWSGDSTYYADSVKGRFTISRDNAKNTVYLQMNSLKPEDTAVYYCNTELVPWTEYWYDYWGQGNQVTVSS,low polyreactivity
9,QVQLVESGGGLVQAGGSLRLSCAASGSIFYYNARGGYRQAPGKERELVATIRTSGGSTYYADSVKGRFTISRDNAMNTVYVQLNSLKPEDTAVYYCAARDLRKLYSRYPYYYWGQGTQVTVSS,high polyreactivity
10,QVQLVESGGGLVQAGGSLRLSCAASGSIFYYNTMGWYRQAPGKERELVAAISWSGGSTSYADSVKGRFTISRDNAKNTVYLQMNSLKPEDTAVYYCAAKAVGLGKSWRGDDYWGQGTQVTVSS,low polyreactivity
11,QVQLVESGGGLVQAGGSLRLSCAASGSIFYYNTMGWYRQAPGKERELVAAISWSGGSTSYADSVKWRFTISRDNAKNTVYLQMNSLKPEDTAVYYCNVDYGVHVPPRDYWGQGTQVTVSS,low polyreactivity
12,QVQLVESGGGLVQAGGSLRLSCAASGSIFYYYAMGCYTQAPGKERELVAAITSGGSTYYADSVNGRFTISRDNAKNSGYLQMNSLKPEDTAVYYCNNAFPYFDDYWGQGTQVTVSS,low polyreactivity
13,QVQLVESGGGLVQAGGSLRLSCAASGSIFYYYAMGWDRQENGKESELVAAIDWDGGTTYYADSVMGLFTISRDNAKNTVYLQMNSLKPEDTAVFYCAGEVLYGPGGGYEYWGQGTQVTVSS,high polyreactivity
14,QVQLVESGGGLVQAGGSLRLSCAASGSIFYYYAMGWYRQAPGKERELVAAITRSGSSTYYADSVKGRFTISRDNAKNTVYLQMNSLKPEDTAVYYCAAKSKRGSRYDSWGQGTQVTVSS,high polyreactivity
15,QVQLVESGGGLVQAGGSLRLSCAASGSIFYYYAMGWYRQAPGKERELVASISRSGGSTFYADSVKGRFTISRDNAKNTVYLQMNSLKPEDTAVYYCATGWYYSPYNYWGQGTQVTVSS,high polyreactivity
16,QVQLVESGGGLVQAGGSLRLSCAASGSIFYYYSMGWYRQAPGKERELVARITSGGTNYADSVKGRFTISRDNAKNTVYLQMNSLKPEDTAVYYCNADHSTWLYKRYDYWGQGTQVTVSS,low polyreactivity
17,QVQLVESGGGLVQAGGSLRLSCAASGSIFYYYTRGWSRQAPGKEMELVAAITSGGSTYYADSVKGRFTISRDNAKNTVYLQMNSLKPEDTAVYYCAAPIYYRLWKPGYEYWGQGTQVTVSS,high polyreactivity
18,QVQLVESGGGLVQAGGSLRLSCAASGSIFYYYVMGWYRQAPGKEREFGAAISWGGDSTYYADSVKGRFTISRDNAMYTVYLQMNSLKPEDTAVYYCNADYPWSVVCYAYWGQGTQVTVSS,low polyreactivity
19,QVQLVESGGGLVQAGGSLRLSCAASGSIIARYAMGWYRQAPGKERELVAAITWSATSTYYADSVKGRFTISRDNAKNTVYLQMNSLKREDTAVYYCNAGASYFLVISQSRRDYWGQGTQVTVSS,low polyreactivity
20,QVQLVESGGGLVQAGGSLRLSCAASGSIIAYNAMGWYRQAPGKERELVAAISYSGDGTYYADSVKGRFTISRDNANNTVYLQMNSLKPEDTAVYFCDTQIYPLVFYQGDWNDYWGQGTQVTVSS,low polyreactivity
